Non-standard residues stand in square brackets, D forms with d. No end group written: not given here. code X = not defined here

What all share (settings): both partners purified
Assay [1] deals with T1, Recombinant human vascular endothelial growth factor (VEGF165) (human, UniProt P15692-4 1-191, X (detection label) on the N-terminus); disulfide bridge between the two cysteines cyclises …; C-terminal Tz4 (1,4-triazole linker) joins it to lfrew | all D-residues (printed in lowercase: l). Briefly: not stated; titration giving EC50 ('relative affinities') of PCCs on VEGF, Figure 2A; experimental details in the Supporting Information.

Assay [2] has as its target T1, Recombinant human vascular endothelial …. Briefly: inhibition assay; inhibition of VEGF binding to VEGFR2 in the presence of PCCs, Figure 2B; experimental details in the Supporting Information.
In assay [3] the target is Recombinant human vascular endothelial growth factor (VEGF165) (human, UniProt P15692-4 1-191, X (detection label) on the N-terminus; disulfide bridge between the two cysteines cyclises …; C-terminal Tz4 (1,4-triazole formed of Az4 and D-propargylglycine) joins it to lfrew | all D-res). Briefly: not stated; titration giving EC50 ('relative affinities') of PCCs on VEGF, Figure 2A; experimental details in the Supporting Information.
Sequence of Recombinant human vascular endothelial growth factor (VEGF165) (human, UniProt P15692-4 1-191, X (detection label) on the N-terminus; disulfide bridge between the two cysteines cyclises …; C-terminal Tz4 (1,4-triazole formed of Az4 and D-propargylglycine) joins it to lfrew | all D-res) (P15692 other isoform, or with tags, fused parts or gaps): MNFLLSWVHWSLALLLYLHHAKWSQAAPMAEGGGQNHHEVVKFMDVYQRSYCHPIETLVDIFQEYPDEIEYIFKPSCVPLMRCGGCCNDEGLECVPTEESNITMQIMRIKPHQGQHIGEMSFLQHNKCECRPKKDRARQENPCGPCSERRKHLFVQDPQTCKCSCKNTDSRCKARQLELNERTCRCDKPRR

T1 sequence (P15692 other isoform, or with tags, fused parts or gaps): as above

B1: Tetra-LV (X-VEPNCDIHVMWEWECFERL-Tz4-lfrew-Tz4-eeird-Tz4-qfkyr) (designed binder)
peptide 1: {code X}-VEPNCDIHVMWEWECFERL
peptide 2: [dL][dF][dR][dE][dW]
peptide 3: [dE][dE][dI][dR][dD]
peptide 4: [dQ][dF][dK][dY][dR]
modifications: cysteine pairing not given here; reading uncertain; also: chains joined via Tz4 linkers, N-terminal X not defined, triazole to a chain's N/C-terminus, triazole to a chain's N/C-terminus, triazole to a chain's N/C-terminus, printed as X-VEPNCDIHVMWEWECFERL-Tz4-lfrew-Tz4-eeird-Tz4-qfkyr
notes: also called tetraligand
By EC50 is commonly meant the concentration at which the effect is half-maximal. As usually defined, the IC50 is the concentration that gives 50% inhibition. As to B1, the EC50 in assay [1] came out at 6.1 ± 0.2 nM. Also, the IC50 in assay [2] is 0.74 ± 0.05 nM.

B2: Bi-LV (X-VEPNCDIHVMWEWECFERL-Tz4-lfrew) (designed binder)
peptide 1: {code X}-VEPNCDIHVMWEWECFERL
peptide 2: [dL][dF][dR][dE][dW]
modifications: not fully specified; printed as X-VEPNCDIHVMWEWECFERL-Tz4-lfrew; cysteine pairing not given here; reading uncertain; also: chain 1 C-terminus joined to chain 2 N-terminus via Tz4
notes: also called anti-VEGF biligand PCC
In the case of B2, the “fold improvement in EC50 relative to AnchorV” value in assay [3] amounted to 4.5 fold.

B3: Tri-LV (X-VEPNCDIHVMWEWECFERL-Tz4-lfrew-Tz4-eeird) (designed binder)
peptide 1: {code X}-VEPNCDIHVMWEWECFERL
peptide 2: [dL][dF][dR][dE][dW]
peptide 3: [dE][dE][dI][dR][dD]
modifications: cysteine pairing not given here; reading uncertain; also: chains joined via Tz4 linkers, N-terminal X not defined, triazole to a chain's N/C-terminus, triazole to a chain's N/C-terminus, printed as X-VEPNCDIHVMWEWECFERL-Tz4-lfrew-Tz4-eeird
notes: also called consensus triligand; 64Cu-DOTA-Tri-LV (N-terminal DOTA conjugate, in vivo)
For the molecule B3, in assay [2], the IC50 turned out to be 2.6 ± 0.5 nM.

The values are drawn from article PMC6585716 (Biopolymers, 2017).
